Results published in the supplement of paper PMC12855868.

B1: library; numbered along this chain (parent)
chain: MAAAGGARLLRAASAVLGGPAGRWLHHAGSRAGSSGLLRNRGPGGSAEASRSLSVSARARSSSEDKITVHFINRDGETLTTKGKVGDSLLDVVVENNLDIDGFGACEGTLACSTCHLIFEDHIYEKLDAITDEENDMLDLAYGLTDRSRLGCQICLTKSMDNMTVRVPETVADARQSIDVGKTS

Variants of: B1
Test: scaled log2 fold change in cell abundance, elesclomol vs control (0 = silent mean, 1 = nonsense mean) (scaled log2 ratio); higher = higher viability under elesclomol (loss of FDX1 cuproptosis function)
Conditions: glucose 10 mM
[1] = with ABC1 FDX1 KO, elesclomol 5 nM, 14 days
[2] = with HEK293T FDX1 KO, elesclomol 40 nM, 11 days
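Also: variant abundance is its share of total variant reads in each endpoint sample, from next-generation sequencing of the integrated ORF PCR-amplified out of genomic DNA.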

Row | Variant | scaled log2 fold change [1] | scaled log2 fold change [2]
1 | G108V | 1.07 | 1.34
2 | G108S | 0.376 | 0.952
3 | G108N | 0.805 | 0.721
4 | G108K | 0.467 | 0.101
5 | G108F | 1.12 | 0.938
6 | G108H | 0.742 | 0.224
7 | G108M | 0.834 | 0.77
8 | G108C | 1.05 | 0.472
9 | G108P | 1.09 | 1.24
10 | G108W | 0.949 | 0.989
11 | G108E | 1.01 | 0.92
12 | G108Y | 1 | 1.1
13 | G108D | 0.898 | 0.446
14 | G108L | 1.02 | 1.11
15 | G108T | 1.01 | 0.358
16 | G108R | 0.794 | -0.104
17 | G108Q | 0.767 | 0.807
18 | G108A | 0.21 | 1.08
19 | G108I | 1.05 | 1.37
20 | A111S | 0.397 | -0.445
21 | A111V | -0.00247 | -0.469
22 | A111F | -1.42 | 0.414
23 | A111P | 1.2 | 1.01
24 | A111C | -0.264 | 2.92

Row | Variant | scaled log2 fold change [1] | scaled log2 fold change [2]
25 | A111I | -0.421 | -0.0909
26 | A111L | 0.263 | 0.862
27 | A111T | 0.105 | -0.0821
28 | A111G | -0.0345 | 0.231
29 | A111E | -0.193 | 1.05
30 | A111Q | -0.0306 | -0.173
31 | A111Y | -1.01 | 0.214
32 | A111R | -0.24 | –
33 | A111W | 0.0852 | 0.773
34 | A111M | -0.315 | 1.22
35 | A111N | -0.0992 | 0.0245
36 | A111D | -0.231 | 0.497
37 | A111H | -0.198 | –
38 | A111K | -0.155 | 0.541
39 | G102N | -0.336 | 0.807
40 | G102I | 0.0866 | 0.0202
41 | G102Y | 0.333 | -0.0235
42 | G102H | 0.0379 | 0.869
43 | G102K | 0.473 | -0.277
44 | G102V | 0.298 | -0.174
45 | G102C | 0.0125 | 0.0278
46 | G102M | -0.196 | -0.665
47 | G102S | 0.293 | 0.861
48 | G102F | -0.00949 | -0.289

Row | Variant | scaled log2 fold change [1] | scaled log2 fold change [2]
49 | G102T | -0.0667 | 2.33
50 | G102P | 0.0181 | -0.00988
51 | G102W | 0.225 | 0.879
52 | G102L | 0.0952 | -0.752
53 | G102D | -0.0623 | -0.526
54 | G102E | 0.427 | -0.163
55 | G102Q | -0.0113 | 0.76
56 | G102A | 0.0393 | -0.812
57 | G102R | 0.164 | -1.7
58 | G104C | 0.959 | 1.19
59 | G104T | 0.997 | 1.59
60 | G104I | 0.933 | 1.53
61 | G104K | 0.879 | 0.468
62 | G104P | 1.02 | 0.598
63 | G104A | 0.243 | -1.55
64 | G104H | 0.989 | 0.725
65 | G104N | 0.899 | 1.47
66 | G104Y | 0.933 | 1.09
67 | G104L | 1.03 | 0.779
68 | G104V | 0.949 | 1.02
69 | G104D | 1.12 | 0.43
70 | G104Q | 1.05 | 0.891
71 | G104F | 0.647 | 0.268
72 | G104E | 1.19 | 0.941

Row | Variant | scaled log2 fold change [1] | scaled log2 fold change [2]
73 | G104R | 0.848 | 0.682
74 | G104M | 0.794 | 0.449
75 | G104W | 0.96 | 0.69
76 | G104S | 0.931 | 0.363
77 | E107L | -0.267 | -0.452
78 | E107R | -1.12 | 1.26
79 | E107V | 0.145 | 0.849
80 | E107T | -0.333 | 0.112
81 | E107D | -0.195 | 0.683
82 | E107W | 0.121 | -0.686
83 | E107H | -0.0248 | 0.933
84 | E107G | -0.152 | 0.114
85 | E107I | 0.227 | 0.0716
86 | E107A | 0.00703 | -0.202
87 | E107K | -0.532 | 0.255
88 | E107Y | 0.333 | -0.16
89 | E107M | -0.428 | -0.835
90 | E107N | 0.0244 | -0.796
91 | E107Q | -0.324 | -0.527
92 | E107P | 0.92 | 0.951
93 | E107F | -0.754 | -1.14
94 | E107C | 0.0589 | 0.444
95 | A105M | -0.336 | 0.677
96 | A105I | -0.149 | -0.181

Row | Variant | scaled log2 fold change [1] | scaled log2 fold change [2]
97 | A105Q | -0.126 | 0.295
98 | A105K | 0.238 | 0.106
99 | A105S | -0.302 | 0.253
100 | A105W | -0.156 | 0.135
101 | A105Y | -0.576 | 0.955
102 | A105D | 0.0439 | 0.0751
103 | A105H | -1.17 | -0.265
104 | A105C | 0.134 | -0.333
105 | A105N | -0.246 | 0.204
106 | A105F | 0.0682 | 0.146
107 | A105R | 0.523 | -0.155
108 | A105L | -0.395 | 0.791
109 | A105V | -0.318 | –
110 | A105G | -0.0984 | -0.152
111 | A105P | 0.895 | 0.503
112 | A105T | -1.22 | –
113 | A105E | 0.163 | -0.502
114 | F103W | 0.392 | -1.07
115 | F103K | 1.2 | 1.14
116 | F103L | 0.27 | 0.542
117 | F103A | 0.92 | 0.527
